B1: sp¦Q8WZA0¦LZIC_HUMAN (protein, UniProt Q8WZA0 1-190, looked up)
Protein LZIC: MASRGKTETSKLKQNLEEQLDRLMQQLQDLEECREELDTDEYEETKKETLEQLSEFNDSLKKIMSGNMTLVDELSGMQLAIQAAISQAFKTPEVIRLFAKKQPGQLRTRLAEMDRDLMVGKLERDLYTQQKVEILTALRKLGEKLTADDEAFLSANAGAILSQFEKVSTDLGSGDKILALASFEVEKTKK
B2: sp¦Q16822¦PCKGM_HUMAN (protein, UniProt Q16822 33-640, looked up)
Phosphoenolpyruvate …: LSGDLGQLPTGIRDFVEHSARLCQPEGIHICDGTEAENTATLTLLEQQGLIRKLPKYNNCWLARTDPKDVARVESKTVIVTPSQRDTVPLPPGGARGQLGNWMSPADFQRAVDERFPGCMQGRTMYVLPFSMGPVGSPLSRIGVQLTDSAYVVASMRIMTRLGTPVLQALGDGDFVKCLHSVGQPLTGQGEPVSQWPCNPEKTLIGHVPDQREIISFGSGYGGNSLLGKKCFALRIASRLARDEGWLAEHMLILGITSPAGKKRYVAAAFPSACGKTNLAMMRPALPGWKVECVGDDIAWMRFDSEGRLRAINPENGFFGVAPGTSATTNPNAMATIQSNTIFTNVAETSDGGVYWEGIDQPLPPGVTVTSWLGKPWKPGDKEPCAHPNSRFCAPARQCPIMDPAWEAPEGVPIDAIIFGGRRPKGVPLVYEAFNWRHGVFVGSAMRSESTAAAEHKGKIIMHDPFAMRPFFGYNFGHYLEHWLSMEGRKGAQLPRIFHVNWFRRDEAGHFLWPGFGENARVLDWICRRLEGEDSARETPIGLVPKEGALDLSGLRAIDTTQLFSLPKDFWEQEVRDIRSYLTEQVNQDLPKEVLAELEALERRVHKM
B3: sp¦Q9BUQ8¦DDX23_HUMAN (protein, UniProt Q9BUQ8 1-820, looked up)
Probable ATP-dependent RNA …: MAGELADKKDRDASPSKEERKRSRTPDRERDRDRDRKSSPSKDRKRHRSRDRRRGGSRSRSRSRSKSAERERRHKERERDKERDRNKKDRDRDKDGHRRDKDRKRSSLSPGRGKDFKSRKDRDSKKDEEDEHGDKKPKAQPLSLEELLAKKKAEEEAEAKPKFLSKAEREAEALKRRQQEVEERQRMLEEERKKRKQFQDLGRKMLEDPQERERRERRERMERETNGNEDEEGRQKIREEKDKSKELHAIKERYLGGIKKRRRTRHLNDRKFVFEWDASEDTSIDYNPLYKERHQVQLLGRGFIAGIDLKQQKREQSRFYGDLMEKRRTLEEKEQEEARLRKLRKKEAKQRWDDRHWSQKKLDEMTDRDWRIFREDYSITTKGGKIPNPIRSWKDSSLPPHILEVIDKCGYKEPTPIQRQAIPIGLQNRDIIGVAETGSGKTAAFLIPLLVWITTLPKIDRIEESDQGPYAIILAPTRELAQQIEEETIKFGKPLGIRTVAVIGGISREDQGFRLRMGCEIVIATPGRLIDVLENRYLVLSRCTYVVLDEADRMIDMGFEPDVQKILEHMPVSNQKPDTDEAEDPEKMLANFESGKHKYRQTVMFTATMPPAVERLARSYLRRPAVVYIGSAGKPHERVEQKVFLMSESEKRKKLLAILEQGFDPPIIIFVNQKKGCDVLAKSLEKMGYNACTLHGGKGQEQREFALSNLKAGAKDILVATDVAGRGIDIQDVSMVVNYDMAKNIEDYIHRIGRTGRAGKSGVAITFLTKEDSAVFYELKQAILESPVSSCPPELANHPDAQHKPGTILTKKRREETIFA
B4: sp¦P00387¦NB5R3_HUMAN (protein, UniProt P00387 2-301, looked up)
NADH-cytochrome b5 reductase 3: GAQLSTLGHMVLFPVWFLYSLLMKLFQRSTPAITLESPDIKYPLRLIDREIISHDTRRFRFALPSPQHILGLPVGQHIYLSARIDGNLVVRPYTPISSDDDKGFVDLVIKVYFKDTHPKFPAGGKMSQYLESMQIGDTIEFRGPSGLLVYQGKGKFAIRPDKKSNPIIRTVKSVGMIAGGTGITPMLQVIRAIMKDPDDHTVCHLLFANQTEKDILLRPELEELRNKHSARFKLWYTLDRAPEAWDYGQGFVNEEMIRDHLPPPEEEPLVLMCGPPPMIQYACLPNLDHVGHPTERCFVF
B5: sp¦P53618¦COPB_HUMAN (protein, UniProt P53618 2-953, looked up)
Coatomer subunit beta: TAAENVCYTLINVPMDSEPPSEISLKNDLEKGDVKSKTEALKKVIIMILNGEKLPGLLMTIIRFVLPLQDHTIKKLLLVFWEIVPKTTPDGRLLHEMILVCDAYRKDLQHPNEFIRGSTLRFLCKLKEAELLEPLMPAIRACLEHRHSYVRRNAVLAIYTIYRNFEHLIPDAPELIHDFLVNEKDASCKRNAFMMLIHADQDRALDYLSTCIDQVQTFGDILQLVIVELIYKVCHANPSERARFIRCIYNLLQSSSPAVKYEAAGTLVTLSSAPTAIKAAAQCYIDLIIKESDNNVKLIVLDRLIELKEHPAHERVLQDLVMDILRVLSTPDLEVRKKTLQLALDLVSSRNVEELVIVLKKEVIKTNNVSEHEDTDKYRQLLVRTLHSCSVRFPDMAANVIPVLMEFLSDNNEAAAADVLEFVREAIQRFDNLRMLIVEKMLEVFHAIKSVKIYRGALWILGEYCSTKEDIQSVMTEIRRSLGEIPIVESEIKKEAGELKPEEEITVGPVQKLVTEMGTYATQSALSSSRPTKKEEDRPPLRGFLLDGDFFVAASLATTLTKIALRYVALVQEKKKQNSFVAEAMLLMATILHLGKSSLPKKPITDDDVDRISLCLKVLSECSPLMNDIFNKECRQSLSHMLSAKLEEEKLSQKKESEKRNVTVQPDDPISFMQLTAKNEMNCKEDQFQLSLLAAMGNTQRKEAADPLASKLNKVTQLTGFSDPVYAEAYVHVNQYDIVLDVLVVNQTSDTLQNCTLELATLGDLKLVEKPSPLTLAPHDFANIKANVKVASTENGIIFGNIVYDVSGAASDRNCVVLSDIHIDIMDYIQPATCTDAEFRQMWAEFEWENKVTVNTNMVDLNDYLQHILKSTNMKCLTPEKALSGYCGFMAANLYARSIFGEDALANVSIEKPIHQGPDAAVTGHIRIRAKSQGMALSLGDKINLSQKKTSI
B6: sp¦Q9HAV4¦XPO5_HUMAN (protein, UniProt Q9HAV4 2-1204, looked up)
Exportin-5: AMDQVNALCEQLVKAVTVMMDPNSTQRYRLEALKFCEEFKEKCPICVPCGLRLAEKTQVAIVRHFGLQILEHVVKFRWNGMSRLEKVYLKNSVMELIANGTLNILEEENHIKDALSRIVVEMIKREWPQHWPDMLIELDTLSKQGETQTELVMFILLRLAEDVVTFQTLPPQRRRDIQQTLTQNMERIFSFLLNTLQENVNKYQQVKTDTSQESKAQANCRVGVAALNTLAGYIDWVSMSHITAENCKLLEILCLLLNEQELQLGAAECLLIAVSRKGKLEDRKPLMVLFGDVAMHYILSAAQTADGGGLVEKHYVFLKRLCQVLCALGNQLCALLGADSDVETPSNFGKYLESFLAFTTHPSQFLRSSTQMTWGALFRHEILSRDPLLLAIIPKYLRASMTNLVKMGFPSKTDSPSCEYSRFDFDSDEDFNAFFNSSRAQQGEVMRLACRLDPKTSFQMAGEWLKYQLSTFLDAGSVNSCSAVGTGEGSLCSVFSPSFVQWEAMTLFLESVITQMFRTLNREEIPVNDGIELLQMVLNFDTKDPLILSCVLTNVSALFPFVTYRPEFLPQVFSKLFSSVTFETVEESKAPRTRAVRNVRRHACSSIIKMCRDYPQLVLPNFDMLYNHVKQLLSNELLLTQMEKCALMEALVLISNQFKNYERQKVFLEELMAPVASIWLSQDMHRVLSDVDAFIAYVGTDQKSCDPGLEDPCGLNRARMSFCVYSILGVVKRTCWPTDLEEAKAGGFVVGYTSSGNPIFRNPCTEQILKLLDNLLALIRTHNTLYAPEMLAKMAEPFTKALDMLDAEKSAILGLPQPLLELNDSPVFKTVLERMQRFFSTLYENCFHILGKAGPSMQQDFYTVEDLATQLLSSAFVNLNNIPDYRLRPMLRVFVKPLVLFCPPEHYEALVSPILGPLFTYLHMRLSQKWQVINQRSLLCGEDEAADENPESQEMLEEQLVRMLTREVMDLITVCCVSKKGADHSSAPPADGDDEEMMATEVTPSAMAELTDLGKCLMKHEDVCTALLITAFNSLAWKDTLSCQRTTSQLCWPLLKQVLSGTLLADAVTWLFTSVLKGLQMHGQHDGCMASLVHLAFQIYEALRPRYLEIRAVMEQIPEIQKDSLDQFDCKLLNPSLQKVADKRRKDQFKRLIAGCIGKPLGEQFRKEVHIKNLPSLFKKTKPMLETEVLDNDGGGLATIFEP
B7: sp¦Q9BX68¦HINT2_HUMAN (protein, UniProt Q9BX68 18-163, looked up)
Adenosine …: VAATGVRGGQVRGAAGVTDGNEVAKAQQATPGGAAPTIFSRILDKSLPADILYEDQQCLVFRDVAPQAPVHFLVIPKKPIPRISQAEEEDQQLLGHLLLVAKQTAKAEGLGDGYRLVINDGKLGAQSVYHLHIHVLGGRQLQWPPG
B8: sp¦Q8IX12¦CCAR1_HUMAN (protein, UniProt Q8IX12 1-1150, looked up)
Cell division cycle and …: MAQFGGQKNPPWATQFTATAVSQPAALGVQQPSLLGASPTIYTQQTALAAAGLTTQTPANYQLTQTAALQQQAAAAAAALQQQYSQPQQALYSVQQQLQQPQQTLLTQPAVALPTSLSLSTPQPTAQITVSYPTPRSSQQQTQPQKQRVFTGVVTKLHDTFGFVDEDVFFQLSAVKGKTPQVGDRVLVEATYNPNMPFKWNAQRIQTLPNQNQSQTQPLLKTPPAVLQPIAPQTTFGVQTQPQPQSLLQAQISAASITPLLQTQPQPLLQQPQQKAGLLQPPVRIVSQPQPARRLDPPSRFSGRNDRGDQVPNRKDDRSRERERERRRSRERSPQRKRSRERSPRRERERSPRRVRRVVPRYTVQFSKFSLDCPSCDMMELRRRYQNLYIPSDFFDAQFTWVDAFPLSRPFQLGNYCNFYVMHREVESLEKNMAILDPPDADHLYSAKVMLMASPSMEDLYHKSCALAEDPQELRDGFQHPARLVKFLVGMKGKDEAMAIGGHWSPSLDGPDPEKDPSVLIKTAIRCCKALTGIDLSVCTQWYRFAEIRYHRPEETHKGRTVPAHVETVVLFFPDVWHCLPTRSEWETLSRGYKQQLVEKLQGERKEADGEQDEEEKDDGEAKEISTPTHWSKLDPKTMKVNDLRKELESRALSSKGLKSQLIARLTKQLKVEEQKEEQKELEKSEKEEDEDDDRKSEDDKEEEERKRQEEIERQRRERRYILPDEPAIIVHPNWAAKSGKFDCSIMSLSVLLDYRLEDNKEHSFEVSLFAELFNEMLQRDFGVRIYKSLLSLPEKEDKKEKDKKSKKDERKDKKEERDDETDEPKPKRRKSGDDKDKKEDRDERKKEDKRKDDSKDDDETEEDNNQDEYDPMEAEEAEDEEDDRDEEEMTKRDDKRDINRYCKERPSKDKEKEKTQMITINRDLLMAFVYFDQSHCGYLLEKDLEEILYTLGLHLSRAQVKKLLNKVVLRESCFYRKLTDTSKDEENHEESESLQEDMLGNRLLLPTPTVKQESKDVEENVGLIVYNGAMVDVGSLLQKLEKSEKVRAEVEQKLQLLEEKTDEDEKTILNLENSNKSLSGELREVKKDLSQLQENLKISENMNLQFENQMNKTIRNLSTVMDEIHTVLKKDNVKNEDKDQKSKENGASV

These molecules were tested on human HL60 cells (assay: SWATH-MS proteomics, differential protein representation, akirin2 KO vs WT HL60 cells). Settings: akirin2 KO vs WT HL60 cells; sheet "Under-represented in KO".
Format: cell-based
Procedure, shortened: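 Three biological replicates per genotype; 150 µg protein FASP/trypsin digested; IDA library (3 µg digest); SWATH variable windows, 5 µg/sample, 3.6 s cycle; gradient 5–30% B 120 min then 30–60% B 15 min; 1% global FDR; TAS normalization.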

Molecule | Fold Change | Log (Fold Change)
B1 | 0.433 | -0.3635
B2 | 0.1415 | -0.8493
B3 | 0.4207 | -0.376
B4 | 0.3747 | -0.4263
B5 | 0.4243 | -0.3723
B6 | 0.4142 | -0.3828
B7 | 0.4303 | -0.3662
B8 | 0.4166 | -0.3803

Reference: publication PMC8298264, “Function of cofactor Akirin2 in the regulation of gene expression in model human neutrophil-like HL60 cells” (Bioscience Reports, 2021)
